The DeepSol protein solubility set

Assay: soluble on expression in E. coli; label from the status in PepcDB or PDB records
In the case of “MGAEGRLYWDEGEGEGPYRLDRFRLLPAEGGFRLLWQGKGELPWPWARVRLRLFGKRLLRAHVEGEAHAAEEGGVLLPPFREALLEVEGLEHHHHHH”, the “soluble on expression in E. coli” value is reported as “not soluble”. With “MGAFFVGAIWLTAAEAFCPAPKGLLPATVLRVVDGDTLHLKDGRRLRMIGLNAPELAGKGRPAEPFAEAARQRLRQLVAQSGGRVGLLPGRERQDRYGRVLAHVYGVTGINFEARLIAEGLAYRIAVLPNVALASCQKAAENHARRAGLGLWRRSPVLKAQQIHRAGFALFEGRVSRVQRNRGGLWITLQGQVVLRIAPNVLRRFDRRLLSGLSGRRIEARGWVVDRSRQPGRQSAHPRWMLSVTDPSMLGLILEHHHHHH” the “soluble on expression in E. coli” value was “not soluble”. In the case of “MGAFLDKPKMEKHNAQGQGNGLRYGLSSMQGWRVEMEDAHTAVIGLPSGLESWSFFAVYDGHAGSQVAKYCCEHLLDHITNNQDFKGSAGAPSVENVKNGIRTGFLEIDEHMRVMSEKKHGADRSGSTAVGVLISPQHTYFINCGDSRGLLCRNRKVHFFTQDHKPSNPLEKERIQNAGGSVMIQRVNGSLAVSRALGDFDYKCVHGKGPTEQLVSPEPEVHDIERSEEDDQFIILACDGIWDVMGNEELCDFVRSRLEVTDDLEKVCNEVVDTCLYKGSRDNMSVILICFPNAPKVSPEAVKKEAELDKYLECRVEEIIKKQGEGVPDLVHVMRTLASENIPSLPPGGELASKRNVIEAVYNRLNPYKNDDTDSTSTDDMWLEHHHHHH”, the “soluble on expression in E. coli” value is reported as “soluble”. For “MGAQGSRVDFKQVVLDVTSKPGKDDETFWDQAWWPDSVNEIFAMISGEDIRKLRDESPKNLATLVYKTVEKLQFSRNHPATIDQKKTINAIRLLTRIVPYLLEDAEWRGYFWSPIPHGDAAKPLAAVLLETLSDLLFCPEFTITHANGQKIDDLSTIDSCEYIWEAGVGSGNKPPMVALHYQNRTEILKLLLTCFAELIYAPVSDETRLRWVIHFTSVTNPHVLPIFTSLLNIVCAYDPVGYGLPYNYLLFNDSREPLVEIALQVLIVCLDKETQPNTDDSGYKDNYFINYLSRIHREEDFDFMLKGITRLLSNPIHSSSSYLPNSTKRVNFHQELLVLLWKCCEINQKFMFYVLKTSDVLDILVPILYHISDARNDSGRVGLIHMGVFIILLLSGERNFGVRLNKPYTAKANINVQTFTGTHADLLILVIHKLITTGNYRLQTLFDCFLTIMVNVSPYMKSLSMVAANKLVHLVEAFSTPWFLFSSPTNPQLVFSLLEVFNNVIQYQFDGNSNLIYTIIRKRNVFYQLSNLSTDAASIAKTLSGRKSKSANRDEMVDQLKSPTSTAPPEIPAADAPAAQTLGGVSTTTGLAATPALASMTGNVGNWEERPESSQDNEWIATQEWADAWKSKLPLQTIMRLLQVLVPQVEKICIDKGLTDESEILKFLQHGTLVGLLPVPHPIVIRRYQTNIGTNHWFRIYMWGVIYLKHTQPPIWYDTDVKLFEVQRA”, the “soluble on expression in E. coli” value was “not soluble”. For “MGAQVSTQKTGAHETGLRASGNSIIHYTNINYYKDAASNSANRQDFTQDPGKFTEPVKDIMVKSLPALN”, the “soluble on expression in E. coli” value was “soluble”. For “MGCFFSKRRKADKESRPENEEERPKQYSWDQREKVDPKDYMFSGLKDETVGRLPGTVAGQQFLIQDCENCNIYIFDHSATVTIDDCTNCIIFLGPVKGSVFFRNCRDCKCTLACQQFRVRDCRKLEVFLCCATQPIIESSSNIKFGCFQWYYPELAFQFKDAGLSIFDNTWSNIHDFTPVSGELNWSLLPEDAVVQDYVPIPTTEELKAVRVSTEANRSIVPISRGQRQKSSDESCLVVLFAGDYTIANARKLIDEMVGKGFFLVQTKEVSMKAEDAQRVFREKAPDFLPLLNKGPVIALEFNGDGAVEVCQLIVNEIFNGTKMFVSESKETASGDVDSFYNFADIQMGILEHHHHHH”, the “soluble on expression in E. coli” value was “soluble”. With “MGCVSSKSTTVLSPQTSFNEASRTSFRALPGPSQRQLEVYDQCLIGAARWPDDSSKSNTPENRAYCQSMYNSIRSAGDEISRGGITSFEELWGRATEWRLSKLQRGEPLYSAFASERTSDTDAVTPLVKPYKSVLARVVDHEDAHDEIMQDNLFGDLNVKVYRQTAYLHGNVIPLNTFRVATDTEYLRDRVAHLRTELGAKALKQHLQRYNPDRIDHTNASYLPIIKDHLNDLYRQAISSDLSQAELISLIARTHWWAASAMPDQRGSAAKAEFAARAIASAHGIELPPFRNGNVSDIEAMLSGEEEFVEKYRSLLDSDCFGTGHHHHHH” the “soluble on expression in E. coli” value was “soluble”. For “MGDGAVKQGFLYLQQQQTFGKKWRRFGASLYGGSDCALARLELQEGPEKPRRCEAARKVIRLSDCLRVAEAGGEASSPRDTSAFFLETKERLYLLAAPAAERGDWVQAICLLAF”, the “soluble on expression in E. coli” value was “soluble”. For “MGDGKPHTAQQTIPYLQMYPDGICRVTEKKYSKSLVFEDINYQLAQADDKTAIFENWCDFLNYFDASVSVQLSFINQGARQEKAQAAIEIPAQDDAFNSIRKEYADMLKNQLEKGNNGLEKCKYITFSIEADNLAAAKARLSRIETDVLNNFKVLGVTARPMNGQERLNVLHGIFHPAGEPFRFSWDWLVPSGLTTKDFIAPSSFHFGDGRTFRMGKKLGAVSFLEILAPELNDRMLSDILDLENGIIVNLHIRSIDQSEAIKTIKRKITDLDKMKIEEQKKAVRSGYDMDIIPSDLATFGSEAKNLLQDLQSRNERMFLLTFLVANMADTKRKLENDIFATAGFAQKNNCALTRLDYLQEAGFMSSIPLGENLIPIQRGLTTSSTAIFIPFITQELFQRGAALYYGLNALSNNMILCDRKQLKNPNGLILGTPGSGKSFAAKREITNIFLITDDDIIICDPEAEYYPLVERLHGQVVHISPTSRHYVNPMDINLNYSEDDNPLALKSDFILSLCELVIGGKEGLQPVEKTVIDRAVRNVYRPFLADPDPAKMPILGDLYNELLKQPEPEAARIAAALELYVSGSLNVFNHRTNVELSNRLVCFDIKQLGKQLKKLGMLIVQDQVWNRVTLNRAEKKATRYYMDEFHLLLKEEQTAAYSVEIWKRFRKWGGIPTAITQNVKDLLSSREVENIFENSDFVLMLNQAQGDRAILAKQLNISPQQMKYVTHTEAGEGLIFYGNVVLPFIDRFPTNTELYRLLTTKPEEVSKPLEHHHHHH”, the “soluble on expression in E. coli” value was “soluble”. For “MGDHYGFSLTTFSPSGKLMQIEYALNAVKNGQPSVGLRAKDGVVLATENVGSVLTDDQPKVEQISKHIGCVYSGMGPDFRILVKKARKIAMEYEMMYGEEMPTIQLVTDIAAVMQEYTQSGGVRPFGASLLIAGWDKNPGRPLLFQCDPSGAYFAWKATALGKNDVNAKTFLEKRFSEALELDDGIHTALLTLRESFDVGMNENNVEVAVCNSTGFHRLTKQQVHDHLGTL”, the “soluble on expression in E. coli” value was “not soluble”. In the case of “MGDIDYQAIEFAYTKCADQQRDTPARHCVIVVGAGPVGLTTALDLARQGLRVVVLDDDYRLSTGSRAICFAKRTLEIWDRLGVGQRMVDKGVSWNVGKVFFRDQEVWRFDLLPEPGHRRPAFINLQQYYAEGYLHELASAQPGIELRWKSKVVGVAQQADGVQVTVDTPDGAYALHVDWLVACDGARSPVRKLLDLETHGRVFKDRFLIADVKMAADYPAERWFWFDPPFHPNQSVLLHMQPDNVWRIDFQLGWNADPVEAVKPENVLPRIRALLGPDADFELEWVSVYTFACERMDHFRHGRVVFAGDSAHRVSPFGARGANSGVQDAENLAWKLKLVLAGHAPESLIDSYAAEREYAADENILNSSRSTDFITPKSEVSRTFRNAVLNLARQHPFARTLVNSGRLSVPAAYADSPLNTPDSDPYAGTMRPGAVALDAPVRADAQPGWWLSQLDGGFALALFCGAETPRADMLDALRALQQDEVPVQPILVCDAGAAPAAAPAGVRVVEDSEGWLARRYDARPGTCYLIRPDQHIAARFRAFDAQAVRRALARAIGRALEHHHHHH”, the “soluble on expression in E. coli” value is reported as “not soluble”. With “MGDIMLIILTGLPGVGKSTFSKNLAKILSKNNIDVIVLGSDLIRESFPVWKEKYEEFIKKSTYRLIDSALKNYWVIVDDTNYYNSMRRDLINIAKKYNKNYAIIYLKASLDVLIRRNIERGEKIPNEVIKKMYEKFDEPGKKYKWDEPFLIIDTTKDIDFNEIAKKLIEKSKEIPKFYVLEENKNKNNNISDKIDKETRKIVSEYIKSKKLDKDKIKEVVELRKEFLKKIKKMEEVDADRVLKEFKDLLNSYLEHHHHHH” the “soluble on expression in E. coli” value was “soluble”. For “MGDNGTGIECIGLPPGFSIDYYAEGVEGARSMALSPEGTLFAGSRGAGKLYAMTDRNGDNKADDVLVIAEGLDMPNGVAFRNGSLYVAEISRVLRYDDIEARLENPPDPAVVRGDFPADRSHGWKYIKFGPDGKLYVPVGMPCNVCNLEEEEERYGTMMRMEPDGSQPEIFARGIRNTVGFAWNPETGELWFTDNGRDWLGDDLPPDELNRAPVPGMHFGFPYCHGKDTPDPEYGEFRNCSEFTAPEVELGPHVAALGMTFYNGSMFPEEYRNQIFIAEHGSWNRKIPIGYRVSLVRLENGTPVSYEPFADGWLQGLASWGRPVDVLVMPDGALLVSDDKNNAIYRISLEHHHHHH”, the “soluble on expression in E. coli” value was “not soluble”. With “MGDNLTDLPGVGPSTAEKLVEAGYIDFMKIATATVGELTDIEGISEKAAAKMIMGARDLCDLGFKSGIDLLKQRSTVWKLSTSSSELDSVLGGGLESQSVTEFAGVFGSGKTQIMHQSCVNLQNPEFLFYDEEAVSKGEVAQPKAVYIDTDGTFRPERIMQMAEHAGIDGQTVLDNTFVARAYNSDMQMLFAEKIEDLIQEGNNIKLVVIDSLTSTFRNEYTGRGKLAERQQKLGRHMATLNKLADLFNCVVLVTNQVSAKPDAFFGMAEQAIGGHIVGHAATFRFFVRKGKGDKRVAKLYDSPHLPDAEAIFRITEKGIQD” the “soluble on expression in E. coli” value was “soluble”. For “MGEIESYCNKELGPLPTKAPTLSKNVLDLFSLKGKVASVTGSSGGIGWAVAEAYAQAGADVAIWYNSHPADEKAEHLQKTYGVHSKAYKCNISDPKSVEETISQQEKDFGTIDVFVANAGVTWTQGPEIDVDNYDSWNKIISVDLNGVYYCSHNIGKIFKKNGKGSLIITSSISGKIVNIPQLQAPYNTAKAACTHLAKSLAIEWAPFARVNTISPGYIDTDITDFASKDMKAKWWQLTPLGREGLTQELVGGYLYLASNASTFTTGSDVVIDGGYTCP”, the “soluble on expression in E. coli” value was “soluble”. With “MGEKIMKSMEIRSSEITTSGAGTLTGYVVRWDKLSELLWGEFYEKFQRGAFTEWLAAGNDVRGLYEHDHSMLLGRTRSGTLKLEEDETGLRFELTPPDTSTGRDVIELVKRGDISGMSFGFRSRKDVWDTTTDPCVRTVLVAELYEITVTSVPAYPDSGVELARRSLYEQHPEKMPRADNRRWWADLAGV” the “soluble on expression in E. coli” value was “not soluble”. With “MGENYKFFNHKDCEFFPCHKTNKPEEFNCLFCYCPLYALGENCGGNFKYTDKGIKDCSSCILPHKKDNYNYIMSKFQDLVKITSKKLEHHHHHH” the “soluble on expression in E. coli” value was “not soluble”. In the case of “MGEPVIEAQISAGFDSDSGFRHAFSRLAGQPPSNLRGRELLKVDWLQTPIGVMLAVADLEHHHHHH”, the “soluble on expression in E. coli” value is reported as “not soluble”. With “MGETAGREHGTVTRSAEYIGSFPVDDSCLDDQIQQLHTQLKSLKNCKSKRTVSLRFSVKGVKVYDEDETTLLMAHAMCRVSLSTARPSDAQFAFASHNPGNSDAQLYCHLFRARHARAAQFLNLLLCRCFQLYFLEKHPEEAQEECSGKKPSRAPSLLNQGFPLSVSALVSFRRAPTQGLLPGAKLFSQQSTEQVSSPEEGPTSSPTIVRKMAIRTKELRSGAYRSFTFTPLKQRHLQDKLSAPQGGMSVHRTLSRLKEFLRKGTSHCKGMHVSSSQFGRNRRSTGSSCVVLGWRV” the “soluble on expression in E. coli” value was “not soluble”. In the case of “MGETTAEAKKDPSSIRVVALDWRYEEILHALGITPVGIVEIGKSKEPQTLKGELEGVTSVGQAKQPNLEVIQSLEPDLILASPTRQAAIMDQLKEIAPTHAYGDTSYTEVLDAMDDIATKVGAEDKAKEVRTRIESKIAQAKNKVEPGTRTALIGWSKNTLYTWVKDSFAGSLLTAAGYEYGYDGEKSAIESKTDVAELTGDKLPEMKLDVMYLYNDIEGFRSSPYADVVSNIVDVEQDTWSRSRGPLAAEAMLDQIINSLEHHHHHH”, the “soluble on expression in E. coli” value is reported as “not soluble”.
